# Patent US20250263500A1 (BEIJING KANGHONG BIOMEDICAL, published 2025)
# T1: CD24 (human, UniProt P25063 27-59)
# T1 chain (looked up): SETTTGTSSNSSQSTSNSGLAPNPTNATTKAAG
# Key:
# [1] = target: T1, CD24; test: cell-based or functional assay
# [2] = target: T1, CD24; test: cell-based or functional assay
Binder,"Phagocytosis rate % (A549 tumor cells by human PBMC-derived M2 macrophages, antibody 5 µg/ml) [1] [%]","Phagocytosis rate (%) (MCF-7 tumor cells by human PBMC-derived M2 macrophages, antibody 5 µg/ml) [2]"
"KH01 (antibody, mouse IgG2a, kappa, V domains shown) VH: DVQLQESGPDLVKPSQSLSLTCTVTGHSITRGYSWHWIRQFPGNKLEWMGYIHHRGTTNYNPSLKSRISFTRDTSKNQFFLQLNSLTTEDTATYFCSRGTNSAFDYWGQGTTLTVSS VL: DIQMTQTTSSLSASLGDRVTISCRASQDISNYLNWYQQKPDGTVKLLIYYTSRLHSGVPSRFSGSGSGTDYSLTISNLEQEDIATYFCQQGNTLPHTFGGGTKLEIKR",11.8,6.2
"KH05 (antibody, mouse IgG2b, kappa, V domains shown) VH: DVQLQESGPDLVKPSQSLSLTCTVTGHSITNGYSWHWIRQFPGNKLEWMGYIHHSGSTNYNPSLKSRISFTRDTSKNQFFLQLNSLTTEDTATYYCLRGTDRSFDYWGQGTTLTVSS VL: DIVMSQSPSSLVVSVGEKISMSCKSSQSLLYSNNQKNYLAWYQQIPGQSPKLLIYWASTRESGVPDRFTGSGSGTDFTLTISSVKAEDLAVYYCQQYYIYPLTFGSGTKLEIKR",10.4,3.2
"KH14 (antibody, mouse IgG2b, kappa, V domains shown) VH: DVQLQESGPDLVKPSQSLSLTCTVTGHSITNGYSWHWIRQFPGNKLEWMGYIHHSGSTNYNPSLKSRISFTRDTSKNQFFLQLNSLTTEDTATYYCLRGTDRSFDYWGQGTTLTVSS VL: DIVMSQSPSSLAVSVGENITMTCKSSQSLLYSNNQKNYLTWYQQNPGQSPKLLIYWASTRESGVPDRFTGSGSGTDFTLTISSVKAEDLAVYYCQQYYIYPFTFGSGTKLEIKR",11.2,3.4
"KH19 (antibody, mouse IgG2b, kappa, V domains shown) VH: DVQLQESGPDLVKPSQSLSLTCTVTGHSITNGYSWHWIRQFPGNKLEWMGYIHHSGSTNYNPSLKSRISFTRDTSKNQFFLQLNSLTTEDTATYYCLRGTDRSFDYWGQGTTLTVSS VL: DIVMSQSPSSLAVSVGEKVTVSCKSSQSLLYSSDQKNYLTWYQQKPGQSPKLLIYWASTRESGVPDRFTGGGSGTDFTLTISSVRAEDLAVYYCQQYFIYPFTFGSGTKLEIKR",10.3,
"KH25 (antibody, mouse IgG2b, kappa, V domains shown) VH: DVQLQESGPDLVKPSQSLSLTCTVTGHSITRGYSWHWIRQFPGNKLEWMGYIHHRGSTNYNPSLKSRISFTRDTSKNQFFLQLNSLTTEDTATYFCSRGTNSAFDYWGQGTTLTVSS VL: DIVMSQSPSSLVVSVGEKISMSCKSSQSLLYSNNQKNYLAWYQQIPGQSPKLLIYWASTRESGVPDRFTGSGSGTDFTLTISSVKAEDLAVYYCQQYYIYPLTFGSGTKLEIKR",11,6.5
"KH16 (antibody, mouse IgG2a, kappa, V domains shown) VH: DVQLQESGPDLVKPSQSLSLTCTVTGYSITSGYTWHWIRQFPGNKLEWMGYIQYSGSTNYNPSLKSRISFTRDTSKNQFFLQLNSVTTEDTATYYCARGTTGGLDYWGQGTTLTVSS VL: DIVMSQSPSSLTVSVGEKITMSCKSSQSLLYSSDQKNYLAWYQQNPGQSPKLLIYWASTKASGVPDRFTGSGSGTDFTLTISSVKAEDLAVYYCQQYYIYPLTFGSGTKLEIKR",12.3,6.8
"KH21 (antibody, mouse IgG2a, kappa, V domains shown) VH: DVQLQESGPDLVKPSQSLSLTCTVTGHSITRGYSWHWIRQFPGNKLEWMGYIHHRGTTNYNPSLKSRISFTRDTSKNQFFLQLNSLTTEDTATYFCSRGTNSAFDYWGQGTTLTVSS VL: DIVMSQSPSSLTVSVGEKITMSCKSSQSLLYSSDQKNYLAWYQQNPGQSPKLLIYWASTKASGVPDRFTGSGSGTDFTLTISSVKAEDLAVYYCQQYYIYPLTFGSGTKLEIKR",10.2,
"KH27 (antibody, mouse IgG2b, kappa, V domains shown) VH: DVQLQESGPDLVKPSQSLSLTCTVTGYSITRGYTWHWIRQFPGNKLEWMGYIQFSGSTKYNPSLKSRFSITRDTSKNQFFLQLNSVTTEDTATYYCARGTTTALDYWGQGTSVTVSS VL: DIVMSQSPSSLAVSIGEKVTMNCQSSQSLLYSSNQKNYLVWYQQKPGQSPKLLIHWASTRESGVPDRFTGSGSGTDFTLTISSVKAEDLAVYYCQQYYIYPFTFGSGTKLEIKR",10.6,
"KH29 (antibody, mouse IgG2b, kappa, V domains shown) VH: DVQLQESGPDLVKPSQSLSLTCTVTGHSITRGYSWHWIRQFPGNKLEWMGYIHHRGTTNYNPSLKNRISFTRDTSKNQFFLQLNSLTTEDTATYFCSRGTNSAFDYWGQGTTLTVSS VL: DIVMSQSPSSLAVSVGEKVTLNCKSSQSLLYSKNQKNYSAWYQQKPGQSPKLLIYWASTRESGVPDRFTGSGSGTDFTLTISSVKAEDLAVYYCQQYYIYPLTFGAGTKLELKR",8.95,
"KH33 (antibody, mouse IgG2a, kappa, V domains shown) VH: DVQLQESGPDLVKPSQSLSLTCTVTGHSITRGYSWHWIRQFPGNKLEWMGYIHHRGTTNYNPSLKSRISFTRDTSKNQFFLQLNSLTTEDTATYFCSRGTNSAFDYWGQGTTLTVSS VL: QIVLTQSPAIMSASPGEKVTMTCSASSSISYMHWYQQKPGTSPKRWIYDTSKLASGVPARFSGSGSGTSYSLTISSMEAEDAATYYCHQRSSYPCTFGGGTKLEIKR",18.3,
"KH02 (antibody, mouse IgG2a, kappa, V domains shown) VH: DVQLQESGPDLVKPSHSLSLTCTVTGYSITRGYSWHWIRQFPGNKLEWMGYIHYSGSTNYNPSLKSRISFTRDTSKNQFFLNLTSLTSEDTATYYCSRGSTWAFDHWGQGTILTVSS VL: DIVMSQSPSSLAVSVGEKITMSCKSSQSLLYSNNQKNYLAWYQQIPGQSPKLLIYLASTRESGVPDRFTGSGSGTDFTLTISSVKAEDLAVYYCQQYFIYPMSFGSGTKLEIKR",10.3,3
"KH03 (antibody, mouse IgG2a, kappa, V domains shown) VH: DVQLQESGPDLVKPSQSLSLTCTVTGHSITRGYSWHWIRQFPGNKLEWMGYIHHRGSTNYNPSLKSRISFTRDTSKNQFFLQLNSLTTEDTATYFCSRGTNSAFDYWGQGTTLTVSS VL: DIVMSQSPSSLTVSVGEKITMSCKSSQSLLYSSDQKNYLAWYQQNPGQSPKLLIYWASTRASGVPDRFTGSGSGTDFTLTISSVKAEDLAIYYCQQYYIYPLTFGSGTKLEIKR",11.9,3.6
"KH04 (antibody, mouse IgG2a, kappa, V domains shown) VH: DVQLQESGPDLVKPSQSLSLTCTVTGHSITRGYSWHWIRQFPGNKLEWMGYIHHRGSTNYNPSLKSRISFTRDTSKNQFFLQLNSLTTEDTATYFCLRGTNSAFDYWGQGTTLTVSS VL: DIVMSQSPSSLTVSVGEKITMSCKSSQSLLYSSDQKNYLAWYQQNPGQSPKLLIYWASTKASGVPDRFTGSGSGTDFTLTISSVKAEDLAVYYCQQYYIYPLTFGSGTKLEIKR",12.8,
"KH10 (antibody, mouse IgG2a, kappa, V domains shown) VH: DVQLQESGPDLVKPSQSLSLTCTVTGHSITRGYSWHWIRQFPGNKLEWMGYIHHRGSTNYNPSLKSRISFTRDTSKNQFFLQLNSLTTEDTATYFCSRGTNSAFDYWGQGTTLTVSS VL: not shown",12.1,
"KH06 (antibody, V domains shown) VH: DVQLQESGPDLVNPSQSLSLTCTVTGYSISRGYSWHWLRRFPGNKLEWMGFIHYSGTTNYNPSLKSRISFTRDTSKNQFFLQLNSLTTEDTATYYCLRGTDRSFDYWGQGTTLTVSS VL: DIVMSQSPSSLVVSVGEKISMSCKSSQSLLYSNNQKNYLAWYQQIPGQSPKLLIYWASTRESGVPDRFTGSGSGTDFTLTISSVKAEDLAVYYCQQYYIYPLTFGSGTKLEIKR",10.9,4.3
"KH07 (antibody, mouse IgG2b, kappa, V domains shown) VH: DVQLQESGPDLEKPSQSLSLTCTVTGYSITRGYSWHWIRQFPGNKLEWMGYIHYSGSTKYNPSLKSRVSFTRDTSKNQFFLQLNSLSPEDTATYYCSRGSDRAFDYWGQGTTLTVSS VL: DIVMSQSPSSLAVSIGEKVTMNCQSSQSLLYSNNQKNYLVWYQQKPGQSPKLLIHWASTRESGVPDRFTGSGSGTDFTLTISSVKAEDLAVYYCQQYYIYPFTFGSGTKLEIKR",10.1,
"KH12 (antibody, mouse IgG2a, kappa, V domains shown) VH: DVQLQESGPDLVKPSHSFSLTCTVTGYSITRGYSWHWIRQFPGNKLEWMGYIHYSGNTNYNPSLKSRFSFTRDTSKNQFFLNLTSLTSEDTATYYCSRGSTWAFDHWGQGTILTVSS VL: DIVMSQSPSSLTVSVGEKVTMSCKSSQSLLYSSDQKNYLTWYQQKPGQSPKLLIYWASTRYSGVPDRFTGSGSGTDFTLTISSVKAEDLAVYYCQQYYIYPFTFGSGTKLEIKR",11.1,
